# Data: the NTF2 design screens of Basanta et al. (2020)
# Experiment: protease stability score; higher = more stable; yeast display proteolysis, trypsin and chymotrypsin;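 note: relative to predicted unfolded state with 0 unfolded-like and 1 meaning tenfold more protease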
row,Sequence,protease stability score
1,DEDEHLLEMALKYFLRHWKTGDEEMIMHLADPNVRLVVGDKKHHGREELFRFVHEMGANHIEVRDSELQGNKLILHLEVNVGDKRHDIKVVIEKIDGRWHLHSLEHR,1.65
2,DHVEEDARTRLKLFLTHWLTGDEHSTNELFDPNVRIDVNGKIIVGRHVLSEEWSRLGIKHSILHIDHIHIDEDEIHIDGILRLIFENHVLDLRVNLHAEKYDGRWHSSEVQVK,1.25
3,SEEEKELREIMKVFKDAFLTGNEDLLRQLMDPHVRFHIGDKKNHGWEALHEYLLRIDHLDDLHSHLTEVHIQGDKVKIDGHLHMVERYGDFRFEREIRVHIVIEKINGRWIIEEVHFI,1.35
4,DEIDNELKTALRRLLHTWMTGDEDSLERLADPNVRFHQGDKDMHGREHMVKWFKEMIDRFPNLRIHDFIISEVRFFDGKAELIGTVLRTYGDKTDEVDFTIISTKIDGQWRIHEIRIN,1.26
5,SEHDEMIHKIAKEIMEVLVTGNEEWLDKLVDPHMRLEFNGKDIHGREKLNELLRKFKNVKLEYHINSIEAWDGRTQVNGKVHIEYGDKSRIKDTRLHVLIWDGKIREMRVDHD,2.23
6,DDREKDSKREVKEFLEMFITGDEERWSKMADPNVRLHFDGVESHGREEALRIMRLLLEQFKNLKVTDVQLTSIEIQGEKALIRTRIHTEVNGKEDSLDVILFATKFDGRWIINSIEIR,1.1
7,DELERDSRRVMEKLLEILYTGNFDELRKLFDPNVITHIDGRHIHGMHITIRELLRIQEELGYEFVEARMTSTHHQGDKLYVHLEYRIGDKTTRFFWFITKIDGRWWITEMRFE,1.4
8,DEEEKEIRHQAEHWFHIILTGDEDTLRNLADPNVRSVWVIGDYERHEHGMDEHNKILKEWRFEEYRRDSIHAINGRVHLDIRSVMTINGKRMSFRIHIDIHVVNGVRKSITIRIE,0.702
9,HDRNEIIREALRILIHSILTGDEDHLREFADPHVKSDINGQEFHGREVFFMWLLHMRIQTVTIKHVDVQGEKARVYSSIHGDVDGQRTEYHTEIFSQKVNGRWIIRTIRVE,1.16
10,SEEEKHMHKMHELRNKRTKTGDEHWFEKLADPHYRVEIGDKELIGWEYLVRVRREFGIDHLETVHIDSTEIQGEKVIEHVTIHGEFDGVRNDLKVELIVIKFNGRWVMHSTKVK,0.761
11,DEEHHNAREMLKLFLDFMQTGDWESHLEMADPNVKVIIDGQEFIGRESSERLIREIRIKRHHLEEERIEVQGDKAIVRLRGRRDGNVNGVETETEVHIRIHFKKIDGRWVMTSVHIEVV,1.75
12,DEDERDARKTSHLFLEAFTTGDEDLLRDMVDPNARSIVNGQEEHGWEVIHKTVRELQERYPNVKIDVNDWSYEVQGDKMRTILHFIIHFDGVHVEIHIHVFSRKINGRWVIRRIEYHER,2.07
13,DELEEEVLKALDEWLRSLATGDFDTLTHLMDPNAKTHIGDKHYHGRELLEIWIKRVDHVHRLHFRLRRYRVVGNKVELDGELEIDGEINGRHTNHSEDIRIVLHKIDGRWVVESMIIR,2.53
14,TDEEEMLRNFWHELIHALHTGDEELFEELADPDTRWYFENRVVIGRETVRNMIDELRIKEVRVERMRIQGDKFHAKLTQRGQINGREVNTETNLHVDIYNGRLKSVELRVK,0.888
15,DEDREIMERFIHILAEVWRTGDEHSLERLFDPNYKTLYDGRDVHGRETHIEILRTLGLERIEVRIKRFRVQGDKLHVNVELDVNGRTTEVEIRWRKIDGRWINHDMEIE,1.39
16,THEDEIFKEFERILREVDETGDEHDIKQYLDPNTKFHINGRDLIGMKVVTEFWRELLQKYKNLTINRRIRHVEVYNGRVHIHGHLSLHYGDKDIRVDVHIQAIKIDGRWHLQQEHYL,1.15
17,DELHNLLEHALKIVIELWRTGDWRLIDKMLDPNTLLNFNGKNIHGREEIDRLRKELGIEFFAIEDQDYRRMHIQGDKIELDGDSDIIINGQRRRTHVHLHLEKINGRWVDRRIIFL,0.913
18,DETEERTRKAIKLSLEVLRTGDERVISEMADPHVRLDFNGRQLHGREEFVHHIVRFFEEAGINYLHIEDWDVFNGVIIEHVRWNFNGREVEVEIIANKVNGKWLIKEFRIK,1.07
19,DEDHEDMRKILELLRTAYETGDERVHEHLLDPNTRLHIGEFNNVGWHNVLEFFEQHQKELGVKHIELRLEDFDKQGDFLIIHGRLIVNVNGKRINVHLEVHMHKVNGRWYDRERRVL,0.928
20,SEEDEMAEEMMRWFLEILETGNEELFNHYADPNVIDIVGDKRVHGMDRFSELHHIFLRHWRIHRRRENTIETYNGRAHIDGEIEGKVNGREKNIRVEIKLNVVNGVIKKVEVTYN,0.379
21,TEEEDLIRRQIHELRETLQTGDEHLLNWLLDPHARMEIDGQEVWGREEIAKFLHRFKNITVLFNDMIVQGDKVDIDGQIEFNGRRRRARLISDKVDGQWIDHDIIII,1.3
22,SEDHERTEIAFKIMLHIFDTGDEHTMHRLVDPNARLRIGDKDWHGREFFFDVISRIKNLRIEELSIEDDDFVNGRIILHGRRNGSIGDKEIDTIVHLLIKKVDGRWRIEHVHNE,1.36
23,SEDEEEERRVEKLWSKALHTGDEEELHRLADPNVLLNFDGVEYIGREEFLKHFRRLVHEARIEFIILKDSKLIDGRLHIHGIDLVTQGDKRIELKSEVIVLKINGRWIIHHIHIH,0.75
24,DEQFKEQKDMHRELEEALLTGDEESWHRLMDPNTRLFFEGRIHHGREEVVRAIREIRRRFGFKVIKRFEVEHVEIIDGRVDIRTIIRGEVNGRDSSLDTRLILNKIDGKWVIQSIIIE,2.2
25,DERHKHDIEVAKEFLEVERTGDEHLLRRLADPHVLSNINGVHNHGRETVIEFWREWFEEWRVTEIKIRHLDAYDGRVRIEGRMRVIYDGREHTIDSEFRLVVVNGRLKSMELILH,-0.043
